# B1: NP137: humanized anti-netrin-1 monoclonal antibody, VH SEQ ID NO: 22, VL SEQ ID NO: 16, human IgG1 (antibody, V domains shown)
# VH: QVQLQQSGPGLVKPSQTLSLTCAISGYTFTSYNMHWVRQATGQGLEWMGAIYPGNGDTSYNQKFKGRLTISKDTSKNQVVLTMTNMDPVDTATYYCARGGTGFAYWGQG
# VL: DIQMTQSPSSLSASVGDRVTITCKASQSVSNDVAWYQQKPGQAPRLLIYYASNRYTGIPPRFSGSGYGTDFTLTINNIESEDAAYYFCQQDYSSPWTFGQG
# modifications: human IgG1 constant region; humanized variant; MISC_FEATURE - CDR according to IGMT
# Tested on: EMT6 cells
# Test: EMT6 syngeneic breast tumor model, tumor growth and survival
# Assay type: in vivo, BALB/c mice
# Settings: NP137 20 mg/Kg loading then 10 mg/Kg i.v.; Venetoclax 5 mg/Kg oral gavage; vs isotypic control antibody
# Protocol: FIG. 8. Combining netrin-1 interference and BH3 mimetics inhibits tumor growth in preclinical in vivo and ex vivo models. ((A,B,C): Combining netrin-1 interference and Bcl-2 inhibition restrains tumor growth in a syngeneic breast cancer model. EMT6 cells were engrafted in BALB/c mice and, once tumors reached a volume of 50 mm^3, treated with isotypic (Iso-mAb) or NP137 antibodies and the Bcl-2 inhibitor Venetoclax, as single agents or in combination. Tumor volumes were measured at the indicated days after the first treatment (n=9, ** p<0.01, ordinary two-way ANOVA with Tukey's multiple comparisons test) (A,B). Survival rate was assessed at sacrifice of mice with tumors more than 500 mm^3 (C). (D,E,F): Combined treatment is efficient to induce apoptosis in human ex vivo slices. Cleaved active caspase-3-positive cells were assessed by IHC staining in fresh ex vivo breast tumor tissue slices. […]
# FIG. 9. […] 24 hours later, apoptosis was quantified by Annexin V/propidium iodide (PI) staining. EC50 values were calculated using nonlinear regression of Dose-response curves with GraphPad Prism software. […] Apoptosis was then evaluated by 5′,6,6′-tetrachloro-1,1′,3,3′-tetraethylbenzimi-dazolylcarbocyanine iodide (JC-1) dye staining, using NucleoCounter NC3000 (n=2, *p<0.05, ordinary two-way ANOVA with Tukey's multiple comparisons test). […]
molecule,measurement,value
B1,tumor growth,no effect on tumor growth
